Test [1] concerns the target hTIGIT mutant N70A (human) (UniProt Q495A1). The test is described as follows: SPR (BIACORE) KD normalized to WT, N=2. In general terms: In SPR one partner is held on a chip, and binding of the other changes the refractive index at the surface.
Test [2] deals with hTIGIT mutant Q53A (human) (UniProt Q495A1). The test is described as follows: SPR (BIACORE) KD normalized to WT, N=2.
Test [3] concerns the target hTIGIT mutant Y113A (human) (UniProt Q495A1). Nature of the test: SPR (BIACORE) KD normalized to WT, N=2.
For test [4], the target named is hTIGIT mutant N70A (human) (UniProt Q495A1). Nature of the test: SPR (BIACORE), N=2.
Sequence of hTIGIT mutant N70A (human) (Q495A1 22-141 N70A limits assumed): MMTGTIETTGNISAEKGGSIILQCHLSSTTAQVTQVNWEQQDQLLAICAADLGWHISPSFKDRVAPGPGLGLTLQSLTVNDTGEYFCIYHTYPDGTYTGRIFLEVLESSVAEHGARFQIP
The target of test [5] is hTIGIT mutant Q53A (human) (UniProt Q495A1). Nature of the test: SPR (BIACORE), N=2.
Test [6] addresses hTIGIT mutant Y113A (human) (UniProt Q495A1). The test is described as follows: SPR (BIACORE), N=2.
The target in test [7] is hTIGIT mutant H76A (human) (UniProt Q495A1). The test is described as follows: SPR (BIACORE) KD normalized to WT, N=2.
Sequence of hTIGIT mutant H76A (human) (Q495A1 22-141 H76A limits assumed): as the sequence (Q495A1 22-141 N70A limits assumed) above, with A49N, H55A counted along it
The target in test [8] is hTIGIT mutant L73A (human) (UniProt Q495A1). The test is described as follows: SPR (BIACORE) KD normalized to WT, N=2.
Sequence of hTIGIT mutant L73A (human) (Q495A1 22-141 L73A limits assumed): as the sequence (Q495A1 22-141 N70A limits assumed) above, with A49N, L52A counted along it
Test [9] has as its target hTIGIT mutant H76A (human) (UniProt Q495A1). Nature of the test: SPR (BIACORE), N=2.
For test [10], the target named is hTIGIT mutant L73A (human) (UniProt Q495A1). Nature of the test: SPR (BIACORE), N=2.

The results in this text go back to patent US20220064286A1.

Sequence of hTIGIT mutant Y113A (human) (Q495A1 22-141 Y113A limits assumed): as the sequence (Q495A1 22-141 N70A limits assumed) above, with A49N, Y92A counted along it
Sequence of hTIGIT mutant Q53A (human) (Q495A1 22-141 Q53A limits assumed): as the sequence (Q495A1 22-141 N70A limits assumed) above, with Q32A, A49N counted along it

B1: 4.1A4.C96S.Q1E (antibody, V domains shown)
VH: EVQLVQSGSELKKPGASVKVSCKASGYTLTNYPMNWVRQAPGRGLEWMGWINTNTGSPAYAQDFTERFVFSLDTSVTTAYLQISSLKAEDTAVYYCARTAITSVYHFDYWGQGTLVTVSS
VL: DIQLTQSPSFLSASVGDRVTITCRASQGISSYLAWYQQKPGKAPRVLIYGATTLQSGVPSRFSGSESGTEFTLTISSLQPEDLATYYCQKLNSHPSSFGQGTKVEIK
The term Kd denotes the constant that tells how readily two partners part at equilibrium. Higher therefore signals weaker binding. B1: the Binding affinity drop vs. WT in [1], in [2] and in test [3] was above 16.2 fold each time. For the same molecule, the Kd in [4], in test [5] and in [6] was above 0.5 µM each time.

B2: 7.4A3.C96S.Q1E (antibody, V domains shown)
VH: EVQLVQSGSDLKKPGASVRVSCKASGYTFTSYPMNWVRQAPGHGLEWMGWINTNTGNPTYVQGFTGRFVFSLDTSVNTAYLQISSLKAEDTAVYFCARTGGHTYDSYAFDVWGQGTMVTVSS
VL: DIQLTQSPTFLSASVGDRVTITCRASQVISSSLAWYQQNPGKAPKLLIYAASTLQSGVPSRFSGSGSGTEFTLTISSLQPEDFVTYYCQHLHGYPSNFGQGTKVEIK
As for B2, the Binding affinity drop vs. WT in [2] and in [3] was above 56 fold in each case. Moreover, the equilibrium dissociation constant (Kd) in test [5] and in test [6] was above 0.1 µM each time.

B3: h6B2.L2H5 (antibody, V domains shown)
VH: EVTLKESGPALVKPTQTLTLTCTFSGFSLSTYGMGVSWIRQPPGKALEWLASIWWNGNTYYNPSLKSRLTITKDTSKNQVVLTMTNMDPVDTATYYCAHTGGAVITWFAYWGQGTLVTVSS
VL: DIQMTQSPSSLSASVGDRVTITCKASQSVGKNIAWYQQKPGKAPKLLIYYASNRYTGVPSRFSGSGSGTDFTFTISSLQPEDIATYYCQHIYNSPYPFGQGTKVEIK
On to B3, for which the Binding affinity drop vs. WT in test [7] and in test [8] was above 143 fold each time. Further, the dissociation constant (Kd) in test [9] and in [10] was above 0.1 µM in each case.
